Measured values as given in patent US20230303623A1, “PEPTIDES AND METHODS OF USE” (REALTA LIFE SCIENCES, INC., priority 2020, published 2023).
Entries after “also recorded” stand apart in the source; their conditions may differ.

What was measured:
VEGF = target: T1, VEGF (Homo sapiens, UniProt P15692); test: VEGF Bioassay (Promega), VEGF signaling via VEGFR-2 (KDR); type: cell-based
T1 construct: Promega (bioassay)
T1 sequence (P15692 27-191 isoform P15692-4): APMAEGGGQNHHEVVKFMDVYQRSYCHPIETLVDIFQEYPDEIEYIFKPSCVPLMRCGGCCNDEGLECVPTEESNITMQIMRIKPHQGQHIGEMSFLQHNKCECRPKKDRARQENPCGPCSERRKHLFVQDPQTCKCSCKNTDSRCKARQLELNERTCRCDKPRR
From the text: Luminescence was detected in luminometer plate reader.
Angiogenesis, or the formation of new blood vessels from the established vasculature, is an essential element in tumor growth and metastasis formation. Inhibiting tumor angiogenesis is considered a major therapeutic strategy in oncology. […] The bioluminescent signal is detected in a luminometer.

[1] = Total Antioxidant Capacity (TAC) assay; settings: highest peptide concentration 1.5 mM; compared to parent peptide
Outline: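 Copper(II)-to-copper(I) reduction kit used per manufacturer to measure antioxidant capacity of PIC1 peptide variants over a concentration range; activity reported at the highest peptide concentration, 1.5 mM.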

CTLA-4 = target: T2, CTLA-4 (Homo sapiens, UniProt P16410); test: CTLA-4 Blockade Bioassay (Promega); type: cell-based; parameters: host or cells: Jurkat T cells (CTLA-4 effector cells) co-cultured with aAPC/Raji cells; settings: increasing concentrations; listed as RLS-0122
T2 sequence (P16410 36-223): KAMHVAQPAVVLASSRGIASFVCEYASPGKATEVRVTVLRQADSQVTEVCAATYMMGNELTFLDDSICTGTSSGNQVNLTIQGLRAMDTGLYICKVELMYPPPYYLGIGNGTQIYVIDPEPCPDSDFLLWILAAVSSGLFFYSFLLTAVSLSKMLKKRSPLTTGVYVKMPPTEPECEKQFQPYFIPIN
Method: CTLA-4 effector cells were incubated with aAPC/Raji Cells in the absence or presence of increasing concentrations of anti-CTLA-4 antibody (positive control), RLS-0122, RLS-0150, RLS-0154, RLS-0164 and RLS-0168 and RLS-0088 (negative control). Luminescence was detected in luminometer plate reader. The drop-off in signal with the test peptides at high concentrations is due to cell death as a result of peptide buffer effects on the cells.
To assess if PIC1 peptides could block CTLA-4 inhibitory activity in a cell-based assay, select peptides were screened in the CTLA-4 Blockade Bioassay (Promega). This bioluminescent cell-based assay can be used to measure the potency and stability of molecules targeting CTLA-4 and consists of two genetically engineered cell lines: CTLA-4 effector cells: Jurkat T cells expressing human CTLA-4 and a luciferase reporter driven by a native promoter which responds to TCR/CD28 activation and aAPC/Raji Cells: Raji cells expressing an engineered cell surface protein designed to activate cognate TCRs in an antigen-independent manner and endogenously expressing CTLA-4 ligands CD80 and CD86. When the two cell types are co-cultured, CTLA-4 competes with CD28 for their shared ligands, CD80 and CD86 and thus inhibits CD28 pathway activation and promoter-mediated luminescence. Addition of a molecule that blocks the interaction of CTLA-4 with its ligands CD80 and CD86 results in promoter-mediated luminescence.

TC-1 cells = test: TC-1 tumor cell model in C57Bl/6 mice; type: in vivo, mouse
Method: Animals were injected with 4×10^5 TC-1 cells subcutaneously into the flank of the animal. Five days later, animals received vehicle treatment with saline (n=6), or drug treatment with RLS-0122 (n=8) IV at 160 mg/kg 1×/day for 15 consecutive days. Animals were also evaluated for behavior and body condition scoring every 2 days for duration of the study. If scoring reached 7 or below, animals were assessed daily. A score of 5 or below was considered endpoint for euthanasia.
To evaluate the efficacy of RLS-0122 in an in vivo system, the inventors utilized the TC-1 tumor cell model in C57Bl/6 mice as previously reported (Roumenina et al., Cancer Immunol Res; 7(7) July 2019). […] When TC-1 cells are introduced into the flank of the mouse, very aggressive tumor formation occurs, resulting in 100% death in approximately 26 days. To test the efficacy of RLS-0122 on survival and quality of life in this model, animals were injected with 4×10^5 TC-1 cells subcutaneously into the flank of the animal. Five days later, animals received vehicle treatment with saline (n=6), or drug treatment with RLS-0122 (n=8) IV at 160 mg/kg 1×/day for 15 consecutive days. […] Animals were also evaluated for behavior and body condition scoring every 2 days for duration of the study. If scoring reached 7 or below, animals were assessed daily. A score of 5 or below was considered endpoint for euthanasia.

C1q = target: T3, C1q (Homo sapiens, UniProt P02745+P02746+P02747); test: C1q binding ELISA-type assay; settings: compared to parent peptide
T3 construct: purchased Complement Technology (Tyler, TX)
T3 sequence (P02745 23-245): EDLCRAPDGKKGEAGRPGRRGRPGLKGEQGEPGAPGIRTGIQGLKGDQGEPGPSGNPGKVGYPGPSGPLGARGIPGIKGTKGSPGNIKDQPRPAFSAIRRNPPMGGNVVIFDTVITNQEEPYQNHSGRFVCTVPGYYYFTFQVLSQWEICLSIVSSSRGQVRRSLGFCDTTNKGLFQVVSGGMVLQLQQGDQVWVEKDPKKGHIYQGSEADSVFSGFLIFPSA
T3 sequence (P02746 28-253): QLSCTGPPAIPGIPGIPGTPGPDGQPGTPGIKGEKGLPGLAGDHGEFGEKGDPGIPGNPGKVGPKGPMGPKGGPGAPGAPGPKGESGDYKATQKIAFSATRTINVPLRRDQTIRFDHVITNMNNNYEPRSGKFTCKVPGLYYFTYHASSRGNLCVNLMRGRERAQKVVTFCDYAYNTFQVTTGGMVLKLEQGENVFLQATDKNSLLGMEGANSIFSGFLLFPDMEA
T3 sequence (P02747 29-245): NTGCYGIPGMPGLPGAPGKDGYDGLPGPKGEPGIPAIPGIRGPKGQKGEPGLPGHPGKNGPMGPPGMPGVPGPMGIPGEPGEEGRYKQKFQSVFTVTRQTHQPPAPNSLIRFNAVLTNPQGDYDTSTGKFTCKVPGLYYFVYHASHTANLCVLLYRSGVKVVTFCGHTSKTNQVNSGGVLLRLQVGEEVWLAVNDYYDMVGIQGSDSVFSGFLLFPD
Method: The C1q binding assay was performed as previously described. Briefly, an Immunlon-2 HB ELISA plate was coated with 1 μg/ml C1q in bicarbonate buffer overnight at 4° C. The plates were washed with PBS-T (phosphate buffered saline+0.1% Tween) and then blocked with 1% gelatin/PBS for 2 hours at room temperature. After washing, the plates were incubated with the peptides starting at 2.5 mg/ml and then serially diluted in 1% gelatin/PBS for 1 hour at room temperature followed by washing. Plates were then probed with rabbit antibody raised against the lead peptide […] (SEQ ID NO: 2) that lacked PEGylation at 1:1000 in 1% gelatin/PBS for 1 hour at room temperature followed by a goat anti-rabbit HRP (Sigma Aldrich, St Louis, MO) at 1:1,000 in 1% gelatin/PBS for 1 hour at room temperature with a washing step in between. After addition of TMB substrate solution to the wells, the reaction was stopped using 1N H2SO4, and the plate read on a BioTek Synergy HT plate reader at 450 nm.
The astrovirus capsid protein and the PIC1 molecules derived from it inhibit classical complement pathway activation by binding to the pattern recognition molecule C1q. The inventors next tested peptide variant binding to C1q in an ELISA-type assay in which C1q is used as the capture substrate and bound peptide detected with a rabbit polyclonal antibody against the peptide portion of PA-dPEG24 ([…]-d24; SEQ ID NO: 3). Binding curves were derived for the stapled and D-amino acid peptides based on the PA-I8Sar and PA-C9Sar (FIG. 5A-5C) backbone, from which half-maximal binding concentrations were calculated (FIGS. 2A and B, respectively). […] For the peptides based on the PA-C9Sar backbone, C1q was bound to a greater degree than the parent peptide (FIG. 2B).

IAdLILEP(Sar)CCQERAA (IALILEPXCCQERAA; D-Leu; sarcosine; MOD_RES (3)..(3) D-amino acid; MOD_RES (8)..(8) Sarcosine) [PA-0122]
inhibition of VEGF signaling via VEGFR-2 (luminescence), in words (VEGF): did not inhibit signaling | total antioxidant capacity, in words [1]: slight increase in total antioxidant capacity | inhibition of CTLA-4 mediated cell signaling (increase in luminescence), in words (CTLA-4): showed inhibitory activity; also recorded: able to inhibit CTLA-4 mediated cell signaling | median survival longer than vehicle (TC-1 cells; IV 160 mg/kg 1x/day for 15 consecutive days, p=0.0465): 8 days | quality of life (behavior and body condition scoring), in words (TC-1 cells; IV 160 mg/kg 1x/day for 15 days, significant on days 22-26 (p<0.05)): increased quality of life | binding to C1q (binding curves, half-maximal binding), in words (C1q): markedly increased binding to C1q
